# Assay results reported in PMC9352680, “A comprehensive thermodynamic model for RNA binding by the Saccharomyces cerevisiae Pumilio protein PUF4”.
# Substitutions are numbered along the chain they refer to. In names and notes the source's numbering stands.
# B1: Id_ii_S2_P5E.3_K5.2_C5.2_[C-2T]_[T-1A]_H5.2_A5.1_F5.1_T5.2_[T11C] (ssRNA)
# RNA: UUUGAUUAAUAUGAUAUCGUUCUUUCUUAUAUAUUAUUACAUUCUUUCUCGAUAUCAUAUUAAUCUUU
# B2: Id_ii_S2_P5E.3_K5.2_C5.2_[T-1A]_H5.2_A5.1_F5.1_T5.2_[T11A]_[A12C] (ssRNA)
# RNA: B1 RNA with U28C, C40A, A41C
# B3: Id_ii_S2_P5E.3_K5.2_C5.2_[T-1G]_H5.2_A5.1_F5.1_T5.2_[T11A]_[A12T] (ssRNA)
# RNA: B1 RNA with U28C, A29G, C40A, A41U
# B4: Id_ii_S2_P5E.3_K5.2_C5.2_[C-2A]_[T-1C]_H5.2_A5.1_F5.1_T5.2_[T11A]_[A12C] (ssRNA)
# RNA: B1 RNA with U28A, A29C, C40A, A41C
# B5: Id_ii_S2_P5E.3_K5.2_C5.2_[T-1G]_H5.2_A5.1_F5.1_T5.2_[T11G]_[A12T] (ssRNA)
# RNA: B1 RNA with U28C, A29G, C40G, A41U
# B6: Id_ii_S2_P5E.3_K5.2_C5.2_[C-2A]_H5.2_A5.1_F5.1_T5.2_[T11C] (ssRNA)
# RNA: B1 RNA with U28A, A29U
# B7: Id_ii_S2_P5E.3_K5.2_C5.2_[C-2A]_H5.2_A5.1_F5.1_T5.2_[T11C]_[A12C] (ssRNA)
# RNA: B1 RNA with U28A, A29U, A41C
# B8: Id_ii_S2_P5E.3_K5.2_C5.2_[C-2T]_H5.2_A5.1_F5.1_T5.2_[T11G]_[A12C] (ssRNA)
# RNA: B1 RNA with A29U, C40G, A41C
# B9: Id_ii_S2_P5E.3_K5.2_C5.2_[C-2T]_H5.2_A5.1_F5.1_T5.2_[A12T] (ssRNA)
# RNA: B1 RNA with A29U, C40U, A41U
# B10: Id_ii_S2_P5E.3_K5.2_C5.2_[T-1A]_H5.2_A5.1_F5.1_T5.2_[T11A]_[A12G] (ssRNA)
# RNA: B1 RNA with U28C, C40A, A41G
# B11: Id_ii_S2_P5E.3_K5.2_C5.2_[C-2T]_H5.2_A5.1_F5.1_T5.2_[A12C] (ssRNA)
# RNA: B1 RNA with A29U, C40U, A41C
# B12: Id_ii_S2_P5E.3_K5.2_C5.2_[C-2A]_[T-1A]_H5.2_A5.1_F5.1_T5.2_[T11C]_[A12C] (ssRNA)
# RNA: B1 RNA with U28A, A41C
# B13: Id_ii_S2_P5E.3_K5.2_C5.2_[T-1A]_H5.2_A5.1_F5.1_T5.2_[T11C]_[A12G] (ssRNA)
# RNA: B1 RNA with U28C, A41G
# B14: Id_ii_S2_P5E.3_K5.2_C5.2_[C-2T]_[T-1A]_H5.2_A5.1_F5.1_T5.2_[T11A]_[A12T] (ssRNA)
# RNA: B1 RNA with C40A, A41U
# B15: Id_ii_S2_P5E.3_K5.2_C5.2_[T-1C]_H5.2_A5.1_F5.1_T5.2_[T11A]_[A12G] (ssRNA)
# RNA: B1 RNA with U28C, A29C, C40A, A41G
# B16: Id_ii_S2_P5E.3_K5.2_C5.2_[C-2A]_H5.2_A5.1_F5.1_T5.2_[A12C] (ssRNA)
# RNA: B1 RNA with U28A, A29U, C40U, A41C
# B17: Id_ii_S2_P5E.3_K5.2_C5.2_[C-2A]_[T-1A]_H5.2_A5.1_F5.1_T5.2_[T11C] (ssRNA)
# RNA: B1 RNA with U28A
# B18: Id_ii_S2_P5E.3_K5.2_C5.2_[C-2T]_[T-1A]_H5.2_A5.1_F5.1_T5.2_[A12T] (ssRNA)
# RNA: B1 RNA with C40U, A41U
# B19: Id_ii_S2_P5E.3_K5.2_C5.2_[C-2A]_[T-1C]_H5.2_A5.1_F5.1_T5.2_[T11A] (ssRNA)
# RNA: B1 RNA with U28A, A29C, C40A
# B20: Id_ii_S2_P5E.3_K5.2_C5.2_[T-1A]_H5.2_A5.1_F5.1_T5.2_[T11C]_[A12C] (ssRNA)
# RNA: B1 RNA with U28C, A41C
# B21: Id_ii_S2_P5E.3_K5.2_C5.2_[T-1G]_H5.2_A5.1_F5.1_T5.2_[A12C] (ssRNA)
# RNA: B1 RNA with U28C, A29G, C40U, A41C
# B22: Id_ii_S2_P5E.3_K5.2_C5.2_[C-2A]_[T-1C]_H5.2_A5.1_F5.1_T5.2_[T11C] (ssRNA)
# RNA: B1 RNA with U28A, A29C
# B23: Id_ii_S2_P5E.3_K5.2_C5.2_[T-1C]_H5.2_A5.1_F5.1_T5.2_[T11C]_[A12G] (ssRNA)
# RNA: B1 RNA with U28C, A29C, A41G
# B24: Id_ii_S2_P5E.3_K5.2_C5.2_[C-2T]_H5.2_A5.1_F5.1_T5.2_[T11C]_[A12C] (ssRNA)
# RNA: B1 RNA with A29U, A41C
# B25: Id_ii_S2_P5E.3_K5.2_C5.2_[C-2T]_H5.2_A5.1_F5.1_T5.2_[T11C] (ssRNA)
# RNA: B1 RNA with A29U
# B26: Id_ii_S2_P5E.3_K5.2_C5.2_[C-2A]_H5.2_A5.1_F5.1_T5.2_[A12T] (ssRNA)
# RNA: B1 RNA with U28A, A29U, C40U, A41U
# B27: Id_ii_S2_P5E.3_K5.2_C5.2_[C-2T]_[T-1A]_H5.2_A5.1_F5.1_T5.2_[A12C] (ssRNA)
# RNA: B1 RNA with C40U, A41C
# B28: Id_ii_S2_P5E.3_K5.2_C5.2_[T-1A]_H5.2_A5.1_F5.1_T5.2_[T11G]_[A12C] (ssRNA)
# RNA: B1 RNA with U28C, C40G, A41C
# Target: T1, PUF4 RNA-binding domain (Saccharomyces cerevisiae, UniProt P25339 537-888)
# T1 sequence: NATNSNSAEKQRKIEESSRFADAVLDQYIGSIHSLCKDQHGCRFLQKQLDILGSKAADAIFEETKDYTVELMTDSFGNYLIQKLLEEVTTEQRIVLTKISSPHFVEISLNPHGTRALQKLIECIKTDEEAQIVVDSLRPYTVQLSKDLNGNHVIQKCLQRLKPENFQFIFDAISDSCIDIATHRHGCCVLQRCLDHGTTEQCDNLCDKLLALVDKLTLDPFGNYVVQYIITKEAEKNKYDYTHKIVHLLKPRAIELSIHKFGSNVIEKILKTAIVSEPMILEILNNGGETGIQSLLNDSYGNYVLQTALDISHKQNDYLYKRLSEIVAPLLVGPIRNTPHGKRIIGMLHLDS
# Assay: Mg; RNA-MaP; 20 mM Na-HEPES pH 7.4, 30 mM KOAc, 0.75 mM MgCl2, 0.1% Tween-20, 5% glycerol, 0.1 mg/mL BSA, 2 mM DTT; 25 C; 0.0125-409.6 nM protein
# Settings: tags: N-His6-TEV cleaved; C-SNAP kept, Cy3B-labelled; label: tethered on chip by stalled RNA polymerase
row,Binder,Kd
1,UCUCUUUGUAUUGCUAUCUCUU (ssRNA) [Ib_S1_P5E.1_K5.1_C5.1_H5.1_A5.1_[A7G]_F5.1_[T8C]_T5.1],15.4 nM
2,B1,14.5 nM
3,B2,96.4 nM
4,B3,12.1 nM
5,B4,102 nM
6,B5,38.1 nM
7,B6,207 nM
8,B7,142 nM
9,B8,219 nM
10,B9,130 nM
11,B10,1200 nM
12,B11,156 nM
13,B12,504 nM
14,B13,372 nM
15,B14,21 nM
16,B15,887 nM
17,B16,122 nM
18,B17,672 nM
19,B18,19.2 nM
20,B19,319 nM
21,B20,69.4 nM
22,B21,28.4 nM
23,B22,162 nM
24,B23,392 nM
25,B24,66.4 nM
26,B25,131 nM
27,B26,269 nM
28,B27,10.7 nM
29,B28,112 nM
